Reference: article PMC8430995

Target: Akt WT (transfected) (UniProt P31749)
Assay: co-immunoprecipitation (K8/K18 IP, Akt immunoblot, quantified)
Conditions: BHK-21 cells transfected with Akt WT, parent: est. 1.0, read off a plot

Sequence of Akt WT (transfected) (P31749 whole entry): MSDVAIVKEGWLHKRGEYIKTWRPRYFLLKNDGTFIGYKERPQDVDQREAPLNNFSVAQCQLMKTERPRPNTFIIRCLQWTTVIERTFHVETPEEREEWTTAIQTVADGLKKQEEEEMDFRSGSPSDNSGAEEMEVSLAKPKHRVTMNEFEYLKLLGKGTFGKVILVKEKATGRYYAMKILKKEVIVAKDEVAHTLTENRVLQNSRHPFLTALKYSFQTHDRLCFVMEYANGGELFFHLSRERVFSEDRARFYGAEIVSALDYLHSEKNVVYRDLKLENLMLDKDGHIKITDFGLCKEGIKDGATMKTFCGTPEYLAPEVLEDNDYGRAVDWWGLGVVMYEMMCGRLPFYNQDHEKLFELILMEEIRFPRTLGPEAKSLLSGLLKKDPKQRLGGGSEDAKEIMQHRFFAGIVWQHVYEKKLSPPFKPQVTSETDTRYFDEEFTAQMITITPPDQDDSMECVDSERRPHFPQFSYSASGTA
Sequence of K8 WT/K18 WT (transfected) (from UniProt P05787;P05783) K18:I149V (P05787 whole entry, stated change not applied): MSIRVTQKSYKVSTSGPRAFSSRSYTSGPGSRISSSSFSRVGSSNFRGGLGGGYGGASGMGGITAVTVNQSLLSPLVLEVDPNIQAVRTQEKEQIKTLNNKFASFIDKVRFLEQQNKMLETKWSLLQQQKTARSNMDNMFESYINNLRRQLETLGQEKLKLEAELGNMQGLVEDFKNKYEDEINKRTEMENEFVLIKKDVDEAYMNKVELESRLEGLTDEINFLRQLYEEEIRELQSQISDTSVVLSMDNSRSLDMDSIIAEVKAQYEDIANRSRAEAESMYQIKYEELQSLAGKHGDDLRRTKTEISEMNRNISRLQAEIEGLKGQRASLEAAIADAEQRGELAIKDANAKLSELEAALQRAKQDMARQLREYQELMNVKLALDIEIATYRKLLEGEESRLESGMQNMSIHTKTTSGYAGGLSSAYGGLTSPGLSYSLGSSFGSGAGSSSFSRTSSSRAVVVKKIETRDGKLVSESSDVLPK
Sequence of K8 WT/K18 WT (transfected) (from UniProt P05787;P05783) K18:I149V (P05783 whole entry, stated change not applied): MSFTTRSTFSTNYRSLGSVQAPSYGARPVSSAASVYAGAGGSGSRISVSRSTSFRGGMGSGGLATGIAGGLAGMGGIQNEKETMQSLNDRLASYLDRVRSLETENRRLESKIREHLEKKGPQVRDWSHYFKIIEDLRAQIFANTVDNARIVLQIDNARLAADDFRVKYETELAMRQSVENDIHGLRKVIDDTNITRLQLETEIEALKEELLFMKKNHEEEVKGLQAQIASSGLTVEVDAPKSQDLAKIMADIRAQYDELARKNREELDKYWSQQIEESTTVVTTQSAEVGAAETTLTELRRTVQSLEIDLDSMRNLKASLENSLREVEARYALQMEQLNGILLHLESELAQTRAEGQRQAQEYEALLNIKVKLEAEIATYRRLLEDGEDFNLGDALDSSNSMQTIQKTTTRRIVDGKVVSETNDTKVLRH
Sequence of K8 WT/K18 WT (transfected) (from UniProt P05787;P05783) K8:Y54H (P05787 whole entry, stated change not applied): as the sequence (P05787 whole entry, stated change not applied) above
Sequence of K8 WT/K18 WT (transfected) (from UniProt P05787;P05783) K8:Y54H (P05783 whole entry, stated change not applied): as the sequence (P05783 whole entry, stated change not applied) above
Sequence of K8 WT/K18 WT (transfected) (from UniProt P05787;P05783) K18:Q284R (P05787 whole entry, stated change not applied): as the sequence (P05787 whole entry, stated change not applied) above
Sequence of K8 WT/K18 WT (transfected) (from UniProt P05787;P05783) K18:Q284R (P05783 whole entry, stated change not applied): as the sequence (P05783 whole entry, stated change not applied) above
Sequence of K8 WT/K18 WT (transfected) (from UniProt P05787;P05783) K18:T294M (P05787 whole entry, stated change not applied): as the sequence (P05787 whole entry, stated change not applied) above
Sequence of K8 WT/K18 WT (transfected) (from UniProt P05787;P05783) K18:T294M (P05783 whole entry, stated change not applied): as the sequence (P05783 whole entry, stated change not applied) above
Sequence of K8 WT/K18 WT (transfected) (from UniProt P05787;P05783) K8:R454C (P05787 whole entry, stated change not applied): as the sequence (P05787 whole entry, stated change not applied) above
Sequence of K8 WT/K18 WT (transfected) (from UniProt P05787;P05783) K8:R454C (P05783 whole entry, stated change not applied): as the sequence (P05783 whole entry, stated change not applied) above
Sequence of K8 WT/K18 WT (transfected) (from UniProt P05787;P05783) K8:R341H (P05787 whole entry, stated change not applied): as the sequence (P05787 whole entry, stated change not applied) above
Sequence of K8 WT/K18 WT (transfected) (from UniProt P05787;P05783) K8:R341H (P05783 whole entry, stated change not applied): as the sequence (P05783 whole entry, stated change not applied) above
Sequence of K8 WT/K18 WT (transfected) (from UniProt P05787;P05783) K8:A319S (P05787 whole entry, stated change not applied): as the sequence (P05787 whole entry, stated change not applied) above
Sequence of K8 WT/K18 WT (transfected) (from UniProt P05787;P05783) K8:A319S (P05783 whole entry, stated change not applied): as the sequence (P05783 whole entry, stated change not applied) above

Substance | ratio to parent (K18 WT and the K8 mutant) | ratio to parent (K8 WT and the K18 mutant)
K8 WT/K18 WT (transfected) (from UniProt P05787;P05783) K8:R454C | 1.1 | –
K8 WT/K18 WT (transfected) (from UniProt P05787;P05783) K8:R341H | 0.92 | –
K8 WT/K18 WT (transfected) (from UniProt P05787;P05783) K8:A319S | 0.93 | –
K8 WT/K18 WT (transfected) (from UniProt P05787;P05783) K18:I149V | – | 1.1
K8 WT/K18 WT (transfected) (from UniProt P05787;P05783) K18:Q284R | – | 1.3
K8 WT/K18 WT (transfected) (from UniProt P05787;P05783) K8:Y54H | 1.1 | –
K8 WT/K18 WT (transfected) (from UniProt P05787;P05783) K18:T294M | – | 1.6
